# System: Escherichia coli TOP10
# Assay: shrunken log2 fold change of peptide-encoding DNA abundance (4.5 h post-induction vs induction); higher = less antimicrobial activity (less host growth inhibition)
# Settings: time post-induction: 4.5 h; library: site-saturation at positions 5, 18, 19, 20
# 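Further: peptides expressed intracellularly from a pBAD plasmid library in pooled LB shake-flask culture, induced with 0.3% L-arabinose, DNA abundance read by NGS, three biological replicates, DESeq2 with apeglm shrinkage.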
row,Sequence,shrunken log2 fold change
1,RRIRVRPPRLPRPRPRPYRIPRP,0.0112
2,RRIRWRPPRLPRPRPRPENMPRP,-0.185
3,RRIRLRPPRLPRPRPRPHNVPRP,0.0245
4,RRIRLRPPRLPRPRPRPTDIPRP,-0.0682
5,RRIRKRPPRLPRPRPRPSYHPRP,2.31
6,RRIRCRPPRLPRPRPRPVFKPRP,-0.355
7,RRIRHRPPRLPRPRPRPFVKPRP,-1.48
8,RRIRWRPPRLPRPRPRPSDCPRP,-0.183
9,RRIRMRPPRLPRPRPRPAIAPRP,1.25
10,RRIRQRPPRLPRPRPRPKYMPRP,-0.386
11,RRIRRRPPRLPRPRPRPHCCPRP,0.208
12,RRIRVRPPRLPRPRPRPFMVPRP,-0.43
13,RRIRQRPPRLPRPRPRPEQGPRP,0.0169
14,RRIRDRPPRLPRPRPRPYRIPRP,0.0295
15,RRIRKRPPRLPRPRPRPLNIPRP,-0.0957
16,RRIRYRPPRLPRPRPRPGRFPRP,-0.0548
17,RRIRNRPPRLPRPRPRPDRWPRP,0.00119
18,RRIRRRPPRLPRPRPRPMIKPRP,0.0444
19,RRIRYRPPRLPRPRPRPVWKPRP,0.0654
20,RRIRHRPPRLPRPRPRPLKAPRP,-0.364
21,RRIRVRPPRLPRPRPRPQRWPRP,0.496
22,RRIRYRPPRLPRPRPRPHFDPRP,0.144
23,RRIRGRPPRLPRPRPRPCNWPRP,0.101
24,RRIRCRPPRLPRPRPRPRISPRP,-0.248
25,RRIRQRPPRLPRPRPRPYKSPRP,-0.248

row,Sequence,shrunken log2 fold change
1,RRIRWRPPRLPRPRPRPGHNPRP,0.31
2,RRIRPRPPRLPRPRPRPLWEPRP,0.0604
3,RRIRKRPPRLPRPRPRPRITPRP,0.227
4,RRIRNRPPRLPRPRPRPDEDPRP,0.421
5,RRIRERPPRLPRPRPRPGLWPRP,0.168
6,RRIRCRPPRLPRPRPRPTMGPRP,-0.136
7,RRIRSRPPRLPRPRPRPTVTPRP,0.166
8,RRIRLRPPRLPRPRPRPFCNPRP,-0.245
9,RRIRERPPRLPRPRPRPVKNPRP,0.0428
10,RRIRQRPPRLPRPRPRPCIPPRP,0.00582
11,RRIRFRPPRLPRPRPRPTISPRP,-0.611
12,RRIRNRPPRLPRPRPRPWHLPRP,-0.0913
13,RRIRPRPPRLPRPRPRPSFCPRP,0.0813
14,RRIRTRPPRLPRPRPRPTQQPRP,0.175
15,RRIRFRPPRLPRPRPRPEKYPRP,-0.397
16,RRIRTRPPRLPRPRPRPHIFPRP,2.13
17,RRIRWRPPRLPRPRPRPTNAPRP,0.0747
18,RRIRWRPPRLPRPRPRPCFKPRP,0.0478
19,RRIRKRPPRLPRPRPRPCGMPRP,0.858
20,RRIRSRPPRLPRPRPRPEAFPRP,-0.0131
21,RRIRWRPPRLPRPRPRPLRCPRP,0.242
22,RRIRIRPPRLPRPRPRPADWPRP,0.218
23,RRIRLRPPRLPRPRPRPFMVPRP,-0.606
24,RRIRVRPPRLPRPRPRPVRDPRP,0.0998
25,RRIRLRPPRLPRPRPRPTCCPRP,-0.013

row,Sequence,shrunken log2 fold change
1,RRIRARPPRLPRPRPRPVPCPRP,0.341
2,RRIRTRPPRLPRPRPRPSKLPRP,-0.473
3,RRIRPRPPRLPRPRPRPVEMPRP,0.0666
4,RRIRDRPPRLPRPRPRPQESPRP,-0.257
5,RRIRHRPPRLPRPRPRPHHWPRP,-0.156
6,RRIRHRPPRLPRPRPRPFRVPRP,-0.371
7,RRIRQRPPRLPRPRPRPASSPRP,-0.196
8,RRIRLRPPRLPRPRPRPINFPRP,-0.426
9,RRIRIRPPRLPRPRPRPIKVPRP,-0.398
10,RRIRRRPPRLPRPRPRPMRNPRP,0.959
11,RRIRQRPPRLPRPRPRPHTRPRP,0.107
12,RRIRQRPPRLPRPRPRPSWLPRP,-0.213
13,RRIRERPPRLPRPRPRPYRVPRP,-0.236
14,RRIRWRPPRLPRPRPRPQKAPRP,0.123
15,RRIRTRPPRLPRPRPRPHSHPRP,-0.626
16,RRIRRRPPRLPRPRPRPKNVPRP,-0.00431
17,RRIRTRPPRLPRPRPRPEKVPRP,-0.292
18,RRIRIRPPRLPRPRPRPARIPRP,-0.0826
19,RRIRNRPPRLPRPRPRPDMPPRP,-0.244
20,RRIRYRPPRLPRPRPRPFNNPRP,2.81
21,RRIRPRPPRLPRPRPRPKHYPRP,-0.529
22,RRIRIRPPRLPRPRPRPDVQPRP,-0.192
23,RRIRWRPPRLPRPRPRPKHSPRP,0.0898
24,RRIRHRPPRLPRPRPRPRGPPRP,0.171
25,RRIRNRPPRLPRPRPRPLAQPRP,0.0157

row,Sequence,shrunken log2 fold change
1,RRIRRRPPRLPRPRPRPFNYPRP,-0.0716
2,RRIRPRPPRLPRPRPRPHQDPRP,-0.362
3,RRIRYRPPRLPRPRPRPAIVPRP,-0.0768
4,RRIRLRPPRLPRPRPRPWQSPRP,0.0341
5,RRIRYRPPRLPRPRPRPNDNPRP,-0.635
6,RRIRTRPPRLPRPRPRPFNQPRP,-0.163
7,RRIRYRPPRLPRPRPRPACRPRP,-0.077
8,RRIRVRPPRLPRPRPRPERGPRP,0.416
9,RRIRSRPPRLPRPRPRPWVSPRP,-0.203
10,RRIRRRPPRLPRPRPRPIMSPRP,-0.0839
11,RRIRYRPPRLPRPRPRPEKQPRP,-0.000925
12,RRIRKRPPRLPRPRPRPDRQPRP,0.204
13,RRIRSRPPRLPRPRPRPKSEPRP,0.0504
14,RRIRVRPPRLPRPRPRPLFVPRP,-0.175
15,RRIRARPPRLPRPRPRPFENPRP,0.166
16,RRIRHRPPRLPRPRPRPCHYPRP,-0.4
17,RRIRPRPPRLPRPRPRPTREPRP,0.177
18,RRIRHRPPRLPRPRPRPVFEPRP,-0.153
19,RRIRFRPPRLPRPRPRPRGAPRP,0.493
20,RRIRVRPPRLPRPRPRPYQFPRP,-0.0508
21,RRIRWRPPRLPRPRPRPNTDPRP,-0.262
22,RRIRGRPPRLPRPRPRPGYCPRP,-0.183
23,RRIRRRPPRLPRPRPRPFEMPRP,0.0983
24,RRIRFRPPRLPRPRPRPNTLPRP,-0.239
25,RRIRVRPPRLPRPRPRPEFWPRP,0.439

row,Sequence,shrunken log2 fold change
1,RRIRARPPRLPRPRPRPLATPRP,0.647
2,RRIRFRPPRLPRPRPRPYKCPRP,-0.208
3,RRIRYRPPRLPRPRPRPDTNPRP,-0.0185
4,RRIRWRPPRLPRPRPRPTNDPRP,0.0116
5,RRIRFRPPRLPRPRPRPPFFPRP,0.243
6,RRIRLRPPRLPRPRPRPQNYPRP,-0.626
7,RRIRERPPRLPRPRPRPVKPPRP,-0.102
8,RRIRARPPRLPRPRPRPINAPRP,-0.256
9,RRIRCRPPRLPRPRPRPIKNPRP,-0.311
10,RRIRGRPPRLPRPRPRPEPPPRP,1.79
11,RRIRWRPPRLPRPRPRPNDVPRP,-0.0909
12,RRIRQRPPRLPRPRPRPWSPPRP,-0.106
13,RRIRVRPPRLPRPRPRPSDHPRP,-0.0923
14,RRIRWRPPRLPRPRPRPASLPRP,0.0313
15,RRIRMRPPRLPRPRPRPQQMPRP,-0.0302
16,RRIRCRPPRLPRPRPRPCCPPRP,-0.316
17,RRIRFRPPRLPRPRPRPQVYPRP,-0.167
18,RRIRTRPPRLPRPRPRPHMWPRP,-0.302
19,RRIRWRPPRLPRPRPRPHLFPRP,0.0795
20,RRIRSRPPRLPRPRPRPYMRPRP,-0.0496
21,RRIRMRPPRLPRPRPRPEAEPRP,2.18
22,RRIRHRPPRLPRPRPRPRADPRP,0.185
23,RRIRRRPPRLPRPRPRPAHIPRP,0.0825
24,RRIRIRPPRLPRPRPRPHQTPRP,0.0701
25,RRIRLRPPRLPRPRPRPVKWPRP,0.215

row,Sequence,shrunken log2 fold change
1,RRIRVRPPRLPRPRPRPKVLPRP,-0.51
2,RRIRLRPPRLPRPRPRPESIPRP,0.0419
3,RRIRGRPPRLPRPRPRPTIWPRP,0.872
4,RRIRARPPRLPRPRPRPIYAPRP,0.144
5,RRIRIRPPRLPRPRPRPFYGPRP,0.0259
6,RRIRPRPPRLPRPRPRPREIPRP,0.44
7,RRIRCRPPRLPRPRPRPYMWPRP,-0.913
8,RRIRVRPPRLPRPRPRPGPAPRP,0.407
9,RRIRVRPPRLPRPRPRPTLVPRP,0.0318
10,RRIRHRPPRLPRPRPRPQEHPRP,-0.389
11,RRIRMRPPRLPRPRPRPPNFPRP,0.35
12,RRIRKRPPRLPRPRPRPQFCPRP,0.0712
13,RRIRLRPPRLPRPRPRPLEFPRP,-0.252
14,RRIRCRPPRLPRPRPRPYIAPRP,-0.762
15,RRIRVRPPRLPRPRPRPIARPRP,0.0436
16,RRIRTRPPRLPRPRPRPLTMPRP,-0.27
17,RRIRTRPPRLPRPRPRPNYMPRP,0.0222
18,RRIRTRPPRLPRPRPRPYRIPRP,-0.0176
19,RRIRMRPPRLPRPRPRPTFSPRP,0.386
20,RRIRTRPPRLPRPRPRPCMWPRP,0.0746
21,RRIRQRPPRLPRPRPRPSPTPRP,0.292
22,RRIRWRPPRLPRPRPRPVTDPRP,0.105
23,RRIRARPPRLPRPRPRPCSWPRP,0.0664
24,RRIRVRPPRLPRPRPRPPLCPRP,0.338
25,RRIRDRPPRLPRPRPRPIDSPRP,-0.0258
